In the Human Domainome abundance scans (Beltran et al. 2025):
± gives the uncertainty stated by the source.

B1: Protein S100-G, residues 1 to 79; numbered along this chain, P02633 (parent)
chain: MSAKKSPEELKGIFEKYAAKEGDPNQLSKEELKLLLQTEFPSLLKGPSTLDELFEELDKNGDGEVSFEEFQVLVKKISQ

Variants of: B1
Assay: abundance fitness (aPCA) (normalised: wild type 0, dead -1); higher = more abundant; growth selection in yeast, the domain comes from the species named
Settings: Bos taurus

Variant	abundance fitness
E15M	0.058 ± 0.082
E15W	-0.048 ± 0.093
E15A	-0.039 ± 0.069
E15Q	0.024 ± 0.084
E15T	0.065 ± 0.071
E15K	-0.031 ± 0.087
E15V	-0.044 ± 0.071
E15D	-0.047 ± 0.093
E15S	-0.009 ± 0.065
E15I	0.078 ± 0.081
E15P	-0.722 ± 0.08
E15N	-0.042 ± 0.083
E15F	0.016 ± 0.079
E15H	0.018 ± 0.088
E15C	-0.152 ± 0.093
E15G	-0.062 ± 0.072
E15Y	0.077 ± 0.086
P24I	0.024 ± 0.09
P24F	-0.197 ± 0.087
P24R	-0.007 ± 0.066
P24L	-0.113 ± 0.063
P24Y	-0.075 ± 0.087
P24G	-0.031 ± 0.069
P24D	-0.125 ± 0.086

Variant	abundance fitness
P24C	0.029 ± 0.087
P24Q	0.019 ± 0.089
P24H	-0.031 ± 0.094
P24V	-0.009 ± 0.071
P24M	-0.066 ± 0.082
P24S	0.06 ± 0.065
P24W	-0.219 ± 0.084
P24E	-0.061 ± 0.086
P24K	0.046 ± 0.082
P24A	-0.093 ± 0.069
E21T	-0.082 ± 0.071
E21Y	-0.058 ± 0.087
E21D	0.074 ± 0.089
E21N	0.039 ± 0.081
E21W	-0.236 ± 0.082
E21V	-0.057 ± 0.07
E21G	-0.034 ± 0.08
E21Q	-0.031 ± 0.078
E21R	-0.104 ± 0.063
E21S	-0.085 ± 0.064
E21F	0.085 ± 0.084
E21P	-0.35 ± 0.073
E21I	-0.027 ± 0.081
E21C	0.011 ± 0.092

Variant	abundance fitness
E21H	-0.014 ± 0.081
E21A	0.003 ± 0.074
N25C	-0.014 ± 0.097
N25G	-0.021 ± 0.076
N25L	0.081 ± 0.065
N25R	-0.069 ± 0.069
N25I	0.024 ± 0.086
N25K	-0.059 ± 0.086
N25D	-0.052 ± 0.098
N25S	-0.027 ± 0.07
N25A	0.014 ± 0.072
N25M	-0.083 ± 0.081
N25Y	-0.067 ± 0.093
N25Q	-0.079 ± 0.09
N25V	-0.066 ± 0.07
N25W	-0.303 ± 0.098
N25E	-0.012 ± 0.092
N25H	0.02 ± 0.086
N25T	-0.006 ± 0.076
N25P	-0.077 ± 0.08
N25F	0.027 ± 0.085
K20G	-0.01 ± 0.076
K20Y	-0.112 ± 0.086
K20L	-0.067 ± 0.064

Variant	abundance fitness
K20A	-0.119 ± 0.071
K20Q	0.04 ± 0.09
K20E	-0.119 ± 0.093
K20W	-0.181 ± 0.084
K20R	0.012 ± 0.066
K20D	-0.05 ± 0.1
K20F	-0.159 ± 0.083
K20N	-0.012 ± 0.079
K20I	-0.098 ± 0.085
K20C	-0.263 ± 0.087
K20V	-0.077 ± 0.075
K20M	0.053 ± 0.081
K20S	-0.088 ± 0.065
Q26D	-0.155 ± 0.092
Q26I	0.003 ± 0.087
Q26A	-0.062 ± 0.07
Q26G	-0.031 ± 0.07
Q26E	0.012 ± 0.09
Q26H	-0.075 ± 0.089
Q26M	0.002 ± 0.083
Q26F	-0.043 ± 0.088
Q26K	-0.05 ± 0.079
Q26L	0.006 ± 0.064
Q26C	-0.082 ± 0.089

Variant	abundance fitness
A19L	0.02 ± 0.064
A19M	-0.015 ± 0.086
A19S	0.007 ± 0.065
A19P	-0.132 ± 0.074
A19F	-0.057 ± 0.077
A19D	-0.034 ± 0.088
A19Q	0.028 ± 0.085
A19H	-0.013 ± 0.083
A19K	0.048 ± 0.09
A19G	0.058 ± 0.078
A19N	-0.017 ± 0.081
A19V	-0.062 ± 0.071
A19I	-0.018 ± 0.081
A19W	-0.111 ± 0.085
A19T	0.143 ± 0.074
A19C	-0.009 ± 0.08
A19R	-0.073 ± 0.069
G12H	0.064 ± 0.089
G12N	0.001 ± 0.096
G12E	-0.165 ± 0.091
G12W	-0.082 ± 0.087
G12M	-0.002 ± 0.073
G12D	0.067 ± 0.12
G12L	-0.009 ± 0.059

Variant	abundance fitness
G12K	0.029 ± 0.083
G12I	0.088 ± 0.099
G12V	0.031 ± 0.072
G12P	-0.048 ± 0.068
G12Y	-0.045 ± 0.094
G12F	-0.01 ± 0.087
G12T	0.068 ± 0.068
G12Q	-0.059 ± 0.077
G12R	0.046 ± 0.076
D23V	-0.065 ± 0.068
D23F	-0.079 ± 0.081
D23S	-0.036 ± 0.067
D23W	-0.254 ± 0.083
D23Y	-0.081 ± 0.074
D23C	-0.064 ± 0.089
D23N	-0.013 ± 0.088
D23K	-0.157 ± 0.082
D23T	0.005 ± 0.073
D23A	-0.009 ± 0.069
D23P	-0.139 ± 0.083
D23G	-0.091 ± 0.078
D23H	-0.074 ± 0.085
D23M	-0.104 ± 0.076
D23Q	-0.046 ± 0.078

Variant	abundance fitness
D23R	-0.043 ± 0.069
D23L	-0.034 ± 0.062
D23E	-0.053 ± 0.088
E8Y	-0.101 ± 0.081
E8L	-0.029 ± 0.062
E8F	-0.079 ± 0.074
E8Q	0.033 ± 0.089
E8A	-0.054 ± 0.076
E8I	-0.029 ± 0.079
E8D	-0.125 ± 0.094
E8V	-0.051 ± 0.074
E8S	-0.106 ± 0.063
E8T	-0.046 ± 0.075
E8N	-0.11 ± 0.089
E8M	0.014 ± 0.08
E8K	-0.004 ± 0.087
E8H	-0.148 ± 0.084
E8R	-0.048 ± 0.068
E8C	-0.361 ± 0.086
E8W	-0.243 ± 0.089
E8P	-0.163 ± 0.074
E8G	-0.049 ± 0.082
A18Q	-0.248 ± 0.079
A18N	-0.362 ± 0.08

Variant	abundance fitness
A18D	-0.846 ± 0.09
A18K	-0.224 ± 0.085
A18R	-0.161 ± 0.066
A18G	-0.077 ± 0.08
A18E	-0.904 ± 0.099
A18W	-0.516 ± 0.093
A18F	-0.367 ± 0.088
A18Y	-0.424 ± 0.085
A18S	-0.055 ± 0.063
A18I	-0.248 ± 0.085
A18P	-0.968 ± 0.073
A18H	-0.195 ± 0.08
A18V	-0.115 ± 0.072
A18L	-0.242 ± 0.064
A18M	-0.161 ± 0.092
A18T	-0.15 ± 0.07
P7V	-0.058 ± 0.073
P7T	0.066 ± 0.07
P7R	-0.079 ± 0.066
P7S	0.02 ± 0.063
P7W	-0.09 ± 0.09
P7N	-0.056 ± 0.072
P7Y	0.063 ± 0.075
L10V	-0.081 ± 0.074

Variant	abundance fitness
L10D	-0.322 ± 0.1
L10C	-0.536 ± 0.1
L10W	-0.076 ± 0.085
L10Y	-0.038 ± 0.081
L10K	-0.401 ± 0.088
L10N	-0.31 ± 0.09
L10H	-0.155 ± 0.08
L10R	-0.488 ± 0.071
L10T	-0.174 ± 0.072
L10A	-0.09 ± 0.083
L10E	-0.202 ± 0.097
L10M	0.044 ± 0.085
L10F	-0.048 ± 0.075
L10I	-0.039 ± 0.088
L10S	-0.221 ± 0.065
L10Q	-0.104 ± 0.077
L10P	-0.383 ± 0.077
Y17G	-0.521 ± 0.073
Y17S	-0.45 ± 0.063
Y17T	-0.444 ± 0.077
Y17L	-0.332 ± 0.063
Y17P	-1.25 ± 0.086
Y17K	-0.519 ± 0.08
Y17F	-0.008 ± 0.082

Variant	abundance fitness
Y17A	-0.129 ± 0.074
Y17M	-0.168 ± 0.083
Y17W	-0.017 ± 0.082
Y17R	-0.429 ± 0.066
Y17C	-0.295 ± 0.081
Y17V	-0.345 ± 0.071
Y17N	-0.433 ± 0.079
Y17E	-0.425 ± 0.084
Y17Q	-0.379 ± 0.081
Y17H	-0.067 ± 0.076
Y17D	-1.1 ± 0.088
G22W	-0.547 ± 0.087
G22P	-0.19 ± 0.075
G22T	-0.22 ± 0.072
G22E	-0.17 ± 0.094
G22F	-0.431 ± 0.091
G22S	-0.114 ± 0.064
G22M	-0.19 ± 0.089
G22L	-0.319 ± 0.065
G22C	-0.264 ± 0.1
G22K	-0.037 ± 0.084
G22I	-0.291 ± 0.096
G22N	-0.147 ± 0.092
G22D	-0.167 ± 0.095

Variant	abundance fitness
G22H	-0.103 ± 0.079
G22Q	-0.231 ± 0.078
G22Y	-0.204 ± 0.086
G22R	-0.013 ± 0.068
G22V	-0.29 ± 0.075
K16L	-0.031 ± 0.062
K16H	-0.101 ± 0.093
K16P	-0.34 ± 0.076
K16V	-0.179 ± 0.067
K16Y	-0.102 ± 0.092
K16A	-0.058 ± 0.069
K16D	-0.18 ± 0.091
K16N	-0.07 ± 0.093
K16C	-0.12 ± 0.086
K16Q	-0.122 ± 0.079
K16F	-0.087 ± 0.087
K16W	-0.176 ± 0.079
K16S	-0.042 ± 0.067
K16G	-0.213 ± 0.07
K16I	-0.184 ± 0.091
K16R	-0.082 ± 0.064
K16M	-0.145 ± 0.08
K16E	-0.105 ± 0.085
K16T	-0.087 ± 0.077

Variant	abundance fitness
I13L	-0.03 ± 0.066
I13N	-0.631 ± 0.084
I13M	0.053 ± 0.091
I13E	-0.386 ± 0.092
I13G	-0.959 ± 0.079
I13V	-0.123 ± 0.071
I13C	-0.093 ± 0.088
I13R	-0.409 ± 0.068
I13F	-0.201 ± 0.081
I13T	-0.17 ± 0.079
I13D	-0.436 ± 0.097
I13S	-0.26 ± 0.068
I13W	-0.231 ± 0.089
I13K	-0.173 ± 0.092
I13Q	-0.219 ± 0.083
I13H	-0.287 ± 0.08
I13P	-0.424 ± 0.08
K11T	-0.197 ± 0.064
K11C	-0.202 ± 0.099
K11M	-0.151 ± 0.077
K11I	-0.002 ± 0.078
K11Y	-0.124 ± 0.079
K11H	-0.14 ± 0.078
K11Q	-0.04 ± 0.078

Variant	abundance fitness
K11L	-0.096 ± 0.06
K11E	-0.063 ± 0.1
K11W	-0.294 ± 0.1
K11P	-0.373 ± 0.068
K11F	0.023 ± 0.08
K11R	-0.185 ± 0.075
K11D	-0.369 ± 0.1
K11A	-0.157 ± 0.081
K11G	-0.176 ± 0.11
F14S	-1.22 ± 0.071
F14A	-0.98 ± 0.072
F14K	-1.18 ± 0.089
F14T	-1.33 ± 0.075
F14N	-1.2 ± 0.1
F14Q	-1.29 ± 0.086
F14W	-0.088 ± 0.083
F14M	-0.589 ± 0.084
F14Y	0.028 ± 0.086
F14R	-1.37 ± 0.07
F14I	-0.504 ± 0.086
F14G	-1.53 ± 0.086
F14D	-1.23 ± 0.099
F14P	-1.33 ± 0.079
F14E	-1.32 ± 0.1

Variant	abundance fitness
F14L	-0.73 ± 0.062
F14H	-0.971 ± 0.093
F14V	-0.729 ± 0.075
F14C	-1 ± 0.095
E9R	-0.179 ± 0.075
E9N	-0.03 ± 0.086
E9T	-0.073 ± 0.075
E9S	-0.073 ± 0.065
E9C	-0.177 ± 0.091
E9I	-0.111 ± 0.081
E9F	-0.128 ± 0.083
E9Q	0.055 ± 0.085
E9H	-0.094 ± 0.078
E9V	-0.062 ± 0.084
E9P	-0.211 ± 0.073
E9M	-0.035 ± 0.081
E9L	-0.073 ± 0.064
E9G	-0.108 ± 0.092
E9K	-0.061 ± 0.096
E9A	-0.132 ± 0.083
E9Y	-0.023 ± 0.074
E9D	0.063 ± 0.11
